The source of these data is article PMC3725402.

What all share (type): biochemical, Arabidopsis thaliana
Substrate in series [1]: C[S+](CC[C@H](N)C(=O)O)C[C@H]1O[C@@H](n2cnc3c(N)ncnc32)[C@H](O)[C@@H]1O
Put plainly: HPLC of dansylated N-methylputrescine, fluorimetric. The following applies: PMT activity, co-substrate putrescine, 20 mM HEPES pH 8.0, 37°C, 2 mM DTT, 1 mM ascorbic acid. An excerpt: (§1) HPLC of dansylated N-methylputrescine, fluorimetric on AtSPDS1 (spermidine synthase 1)

Substrate in series [2]: NCCCCN
Described as above. The conditions noted are these: PMT activity, co-substrate SAM, 20 mM HEPES pH 8.0, 37°C, 2 mM DTT, 1 mM ascorbic acid.
Source text: as §1

Substrate in series [3]: NCCCCN
Put plainly: HPLC of dansylated spermidine, fluorimetric. The following applies: SPDS activity, co-substrate dcSAM, 20 mM HEPES pH 8.0, 37°C, 2 mM DTT, 1 mM ascorbic acid. An excerpt:
(§2) HPLC of dansylated spermidine, fluorimetric on AtSPDS1 (spermidine synthase 1)

Substrate in series [4]: C[S+](CCCN)C[C@H]1O[C@@H](n2cnc3c(N)ncnc32)[C@H](O)[C@@H]1O
Put plainly: HPLC of dansylated spermidine, fluorimetric. The conditions noted are these: SPDS activity, co-substrate putrescine, 20 mM HEPES pH 8.0, 37°C, 2 mM DTT, 1 mM ascorbic acid.
Source text: as §2

B1: AtSPDS1 (spermidine synthase 1) (Arabidopsis thaliana; D131I/Q107T/V134T) (protein)
chain: MDAKETSATDLKRPREEDDNGGAATMETENGDQKKEPACFSTVIPGWFSEMSPMWPGEAHSLKVEKVLFQGKSDYQDVIVFQSATYGKVLVLDGVIQLTERDECAYTEMITHLPLCSIPNPKKVLVIGGGIGGTLREVARHASIEQIDMCEIDKMVVDVSKQFFPDVAIGYEDPRVNLVIGDGVAFLKNAAEGSYDAVIVDSSDPIGPAKELFEKPFFQSVARALRPGGVVCTQAESLWLHMDIIEDIVSNCREIFKGSVNYAWTSVPTYPSGVIGFMLCSTEGPDVDFKHPLNPIDESSSKSNGPLKFYNAEIHSAAFCLPSFAKKVIESKAN
notes: pQE-30, N-terminal His tag, E. coli M15[pREP4], HisTrap purified
As to B1, in series [1], the Michaelis constant (Km) turned out to be 12 ± 0.60 µM and the kcat was 0.081 s⁻¹. Moreover, in series [2], the Km stood at 32 ± 1.88 µM and the kcat worked out at 0.081 s⁻¹.

B2: AtSPDS1 (spermidine synthase 1) (Arabidopsis thaliana) (protein)
chain: MDAKETSATDLKRPREEDDNGGAATMETENGDQKKEPACFSTVIPGWFSEMSPMWPGEAHSLKVEKVLFQGKSDYQDVIVFQSATYGKVLVLDGVIQLTERDECAYQEMITHLPLCSIPNPKKVLVIGGGDGGVLREVARHASIEQIDMCEIDKMVVDVSKQFFPDVAIGYEDPRVNLVIGDGVAFLKNAAEGSYDAVIVDSSDPIGPAKELFEKPFFQSVARALRPGGVVCTQAESLWLHMDIIEDIVSNCREIFKGSVNYAWTSVPTYPSGVIGFMLCSTEGPDVDFKHPLNPIDESSSKSNGPLKFYNAEIHSAAFCLPSFAKKVIESKAN
notes: as for B1
With B2, in series [3], the Michaelis-Menten constant (Km) came out at 220 ± 18.44 µM and the kcat was 0.722 s⁻¹. In addition, in series [4], the Km was 18 ± 1.23 µM and the turnover number (kcat) is 0.722 s⁻¹.

B3: AtSPDS1 (spermidine synthase 1) (Arabidopsis thaliana; D131I) (protein)
chain: MDAKETSATDLKRPREEDDNGGAATMETENGDQKKEPACFSTVIPGWFSEMSPMWPGEAHSLKVEKVLFQGKSDYQDVIVFQSATYGKVLVLDGVIQLTERDECAYQEMITHLPLCSIPNPKKVLVIGGGIGGVLREVARHASIEQIDMCEIDKMVVDVSKQFFPDVAIGYEDPRVNLVIGDGVAFLKNAAEGSYDAVIVDSSDPIGPAKELFEKPFFQSVARALRPGGVVCTQAESLWLHMDIIEDIVSNCREIFKGSVNYAWTSVPTYPSGVIGFMLCSTEGPDVDFKHPLNPIDESSSKSNGPLKFYNAEIHSAAFCLPSFAKKVIESKAN
notes: as for B1
Take B3: in series [1], the Michaelis constant (Km) was 28 ± 0.77 µM and the turnover number (kcat) amounted to 0.00448 s⁻¹. Further, in series [2], the Km was found to be 56 ± 4.45 µM and the turnover number (kcat) is 0.00448 s⁻¹.

In general, Km refers to the concentration of substrate that gives half-maximal velocity. Broadly, the kcat is the maximal rate divided by the concentration of active sites.
